Measurements from publication PMC5045424, “The La protein counteracts cisplatin-induced cell death by stimulating protein synthesis of anti-apoptotic factor Bcl2”.

Tests used:
[1] = biological target: T1, La (LARP3, La/SSB), recombinant His-tagged wildtype (human, UniProt P05455 1-408); assay: EMSA; 25 nM RNA, 0-600 nM La; EMSA and FP: 25 nM FAM-RNA, 0-600 nM La; competition FP: 200 nM La; buffer, salt, pH and temperature not given (cited to ref 21); conditions: protein: recombinant; tags: His; label: 5' 6-FAM; stem-loop embedding the AUG (mfold)
T1 sequence: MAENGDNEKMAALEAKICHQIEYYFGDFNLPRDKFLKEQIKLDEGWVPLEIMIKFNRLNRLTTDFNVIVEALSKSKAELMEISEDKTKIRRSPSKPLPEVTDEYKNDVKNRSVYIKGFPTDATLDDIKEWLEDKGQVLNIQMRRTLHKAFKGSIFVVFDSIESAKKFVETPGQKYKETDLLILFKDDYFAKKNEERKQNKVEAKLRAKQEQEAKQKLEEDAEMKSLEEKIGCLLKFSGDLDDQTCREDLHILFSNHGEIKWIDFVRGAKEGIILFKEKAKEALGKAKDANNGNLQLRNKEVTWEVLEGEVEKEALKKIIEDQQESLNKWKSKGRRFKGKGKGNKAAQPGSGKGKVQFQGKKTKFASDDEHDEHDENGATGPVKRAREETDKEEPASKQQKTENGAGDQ

[2] = biological target: T1, La (LARP3, La/SSB), recombinant …; assay: fluorescence polarization; 25 nM RNA; EMSA and FP: 25 nM FAM-RNA, 0-600 nM La; competition FP: 200 nM La; buffer, salt, pH and temperature not given (cited to ref 21); conditions: protein: recombinant; tags: His; label: 5' 6-FAM; stem-loop embedding the AUG (mfold)

CCCGUUGCUUUUCCUCUGGGAAGGAUGGCGCACGCUGGG (structured_RNA) [Bcl2_WT RNA oligonucleotide, FAM-labeled (-24 to +15)]
Kd [1]: 0.0505 ± 0.0059 µM
Kd [2]: 0.0601 ± 0.0045 µM
